# Reference: patent US9393284B2, “Visfatin therapeutic agents for the treatment of acne and other conditions” (ARAVA BIO-TECH LTD., priority 2009, dated 2016)
# B1: visfatin: recombinant Mus musculus visfatin (Enzo Life Sciences), in PBS, topical or intradermal solution (protein, UniProt Q99KQ4 1-491, looked up)
# Nicotinamide …: MNAAAEAEFNILLATDSYKVTHYKQYPPNTSKVYSYFECREKKTENSKVRKVKYEETVFYGLQYILNKYLKGKVVTKEKIQEAKEVYREHFQDDVFNERGWNYILEKYDGHLPIEVKAVPEGSVIPRGNVLFTVENTDPECYWLTNWIETILVQSWYPITVATNSREQKKILAKYLLETSGNLDGLEYKLHDFGYRGVSSQETAGIGASAHLVNFKGTDTVAGIALIKKYYGTKDPVPGYSVPAAEHSTITAWGKDHEKDAFEHIVTQFSSVPVSVVSDSYDIYNACEKIWGEDLRHLIVSRSTEAPLIIRPDSGNPLDTVLKVLDILGKKFPVTENSKGYKLLPPYLRVIQGDGVDINTLQEIVEGMKQKKWSIENVSFGSGGALLQKLTRDLLNCSFKCSYVVTNGLGVNVFKDPVADPNKRSKKGRLSLHRTPAGNFVTLEEGKGDLEEYGHDLLHTVFKNGKVTKSYSFDEVRKNAQLNIEQDVAPH
# Experiments:
# sebaceous glands [1] = assay: Number of sebocytes in sebaceous glands of adult BalbC mice after topical or intradermal visfatin (H&E staining); format: in vivo, Mus musculus; details: 0.01 μg/ml, 200 μL once daily for 4 days
# Experimental: Preparation of Paraffin Embedded Skin Sections: Skin biopsies were performed on study mice. Skin biopsy samples were fixed in 4% paraformaldehyde then dehydrated with increasing concentrations of ethanol (50-100%). Dehydrated biopsy samples were immersed twice in xylene, then once in a 1:1 solution of paraffin and xylene and finally three times in pure melted paraffin at a temperature of 60° C. Paraffin blocks were then sectioned with a microtome and the resulting sections were mounted on slides.
# Hematoxylin & Eosin Staining: Paraffin embedded skin biopsy section slides were incubated at 60° C. for 60 minutes and deparaffinized by washing the slides twice with toluene (100%) for 10 minutes and rehydrating the skin biopsy section slides in decreasing concentration of ethanol (100-50%) for 5 minutes each. The slides then were stained with a ready to use solution of hematoxylin for 5 minutes, rinsed with water, stained with eosin (0.5% in double distilled water) for 1.5 minutes and washed twice by rapid immersion in 70% ethanol. […]
# Skin samples were fixed in 4% paraformaldehyde and paraffin embedded. The number of cells with the bubbled shaped morphology characteristic of sebocytes were then counted and calculated as a percentage of the number of total cells in each sebaceous gland by microscopic examination at a magnification of 40× using a Nikon Eclipse 50i microscope. […]
# sebaceous glands [2] = assay: Maturation and sebum accumulation of sebaceous glands in newborn BalbC mice treated with visfatin (Oil Red O, H&E); format: in vivo, Mus musculus
# Experimental: Preparation of Frozen Skin Sections: Skin biopsies were embedded in optimum cutting temperature compound (OCT) and immediately sectioned by cryostat-microtome and mounted on slides.
# Hematoxylin & Eosin Staining: Paraffin embedded skin biopsy section slides were incubated at 60° C. for 60 minutes and deparaffinized by washing the slides twice with toluene (100%) for 10 minutes and rehydrating the skin biopsy section slides in decreasing concentration of ethanol (100-50%) for 5 minutes each. The slides then were stained with a ready to use solution of hematoxylin for 5 minutes, rinsed with water, stained with eosin (0.5% in double distilled water) for 1.5 minutes and washed twice by rapid immersion in 70% ethanol. Thereafter, the slides were dehydrated by washing once with 95% ethanol for 5 minutes, twice with 100% ethanol for 5 minutes and twice with xylene (100%) for 10 minutes. This was followed by the application of ENTELLAN™ (Merck KGaA, Darmstadt, Germany) and the mounting of coverslips.
# Oil Red O Staining: Frozen skin biopsy section slides were fixed in 1% neutral-buffered formalin for 5 minutes, washed in deionized water, and incubated in 60% isopropanol for 5 minutes. […]
molecule,measurement,setting,value
B1,number of sebocytes present inside the sebaceous glands relative to control mice,sebaceous glands [1]; intradermal,increased
same,number of sebocytes present inside the sebaceous glands relative to control mice,sebaceous glands [1]; topical,increased
same,sebum in sebaceous glands based on Oil Red O staining,"sebaceous glands [2]; topical visfatin 0.01 μg/ml 100 μL once daily, day 3 after birth",do contain sebum
same,maturation of sebaceous glands (H&E staining),"sebaceous glands [2]; topical visfatin, day 4 after birth",induces the maturation of sebaceous glands
